From patent publication US20180057604A1 (Genentech, published 2018)
Where two headings read alike, the source gives them in different places.

T1: cyno TfR extracellular domain (analogous construct to human TfR ecd) (cynomolgus monkey, UniProt Q5RDH6 87-760 (Pongo abelii entry))
T1 construct: also called cynoTfR ecd
T1 chain: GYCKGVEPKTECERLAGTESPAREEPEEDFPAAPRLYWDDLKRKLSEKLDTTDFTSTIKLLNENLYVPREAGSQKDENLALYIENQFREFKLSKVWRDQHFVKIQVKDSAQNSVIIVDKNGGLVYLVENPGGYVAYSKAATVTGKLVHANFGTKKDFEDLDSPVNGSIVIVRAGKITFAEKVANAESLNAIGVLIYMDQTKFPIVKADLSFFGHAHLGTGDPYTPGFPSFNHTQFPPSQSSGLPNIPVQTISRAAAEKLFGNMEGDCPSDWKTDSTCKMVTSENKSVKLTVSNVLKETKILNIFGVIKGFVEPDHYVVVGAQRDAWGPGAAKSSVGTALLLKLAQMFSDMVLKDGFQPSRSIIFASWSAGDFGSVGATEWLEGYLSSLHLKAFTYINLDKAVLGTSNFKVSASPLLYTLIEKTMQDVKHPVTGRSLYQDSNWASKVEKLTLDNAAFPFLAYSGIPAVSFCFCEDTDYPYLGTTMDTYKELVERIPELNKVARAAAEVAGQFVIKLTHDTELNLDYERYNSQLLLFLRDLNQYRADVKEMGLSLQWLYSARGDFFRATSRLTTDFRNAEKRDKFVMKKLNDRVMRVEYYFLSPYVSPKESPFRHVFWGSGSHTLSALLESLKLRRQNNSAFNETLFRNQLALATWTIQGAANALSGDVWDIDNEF

B1: Hu15G11.v1.Fab (Fab, V domains shown)
VH: EVQLVQSGAEVKKPGASVKVSCKASGYTFTSYWMHWVRQAPGQRLEWMGEINPTNGRTNYIEKFKSRVTITRDTSASTAYMELSSLRSEDTAVYYCARGTRAYHYWGQGTMVTVSS
VL: DIQMTQSPSSLSASVGDRVTITCRASDNLYSNLAWYQQKPGKAPKLLLYDATNLADGVPSRFSGSGSGTDYTLTISSLQPEDFATYYCQHFWGTPLTFGQGTKVEIK
notes: Fab
B2: Hu15G11.v3.Fab (Fab, V domains shown)
VH: EVQLVQSGAEVKKPGASVKVSCKASGYTFTSYWMHWVRQAPGQRLEWMGEINPTNGRTNYIEKFKSRVTITRDTSASTAYMELSSLRSEDTAVYYCARGTRAYHYWGQGTMVTVSS
VL: DIQMTQSPSSLSASVGDRVTITCRASDNLYSNLAWYQQKPGKSPKLLVYDATNLADGVPSRFSGSGSGTDYTLTISSLQPEDFATYYCQHFWGTPLTFGQGTKVEIK
notes: Fab
B3: 6300 (antibody, V domains shown)
VH: QVQLVQSGAEVKKPGSSVKVSCKASGGTLSGYAISWVRQAPGQGLEWMGNIIPGFGTANYAQKSQGRVTITADESTSTAYMELSSLRSEDTAVYYCARSGGTRYGMLDVWGQGTMVTVSS
VL: EIVLTQSPATLSVSPGERATLSCRASQSVGSNLAWYQQKPGQAPRLLIYGASTRATGIPARFSGSGSGTEFTLTISSLQSEDFAVYYCQQSFLWPPRTFGGGTKVEIK
notes: anti-BACE1 IgG
B4: D101A (antibody, V domains shown)
VH: EVQLVQSGAEVKKPGASVKVSCKGSGYTFTDYAMHWVRQAPGQGLEWMGGISTYFGRTNYNQKFKGRVTMTVDTSISTAYMELSRLRSDDTAVYYCARGLSGNYVMAYWGQGTTVTVSS
VL: DIVMTQSPDSLAVSLGERATINCRASESVDSYGNSFMHWYQQKPGQPPKLLIYRASNLESGVPDRFSGSGSRTDFTLTISSLQAEDVAVYYCQQSNEAPPTFGQGTKLEIK
notes: also called 7A4.v15 D101A (CDR-H3) IgG; copies: 2 + 2
B5: Hu7A4.v9.Fab (Fab, V domains shown)
VH: EVQLVQSGAEVKKPGASVKVSCKASGYTFTDYAMHWVRQAPGQGLEWMGGISTYFGRTNYNQKFKGRVTMTRDTSISTAYMELSRLRSDDTAVYYCARGLSGNYVMDYWGQGTTVTVSS
VL: DIVMTQSPDSLAVSLGERATINCRASESVDSYGNSFMHWYQQKPGQPPKLLIYRASNLESGVPDRFSGSGSRTDFTLTISSLQAEDVAVYYCQQSNEGPPTFGQGTKLEIK
notes: Fab
B6: Hu7A4.v12.Fab (Fab, V domains shown)
VH: EVQLVQSGAEVKKPGASVKVSCKGSGYTFTDYAMHWVRQAPGQGLEWMGGISTYFGRTNYNQKFKGRVTMTVDTSISTAYMELSRLRSDDTAVYYCARGLSGNYVMDYWGQGTTVTVSS
VL: DIVMTQSPDSLAVSLGERATINCRASESVDSYGNSFMHWYQQKPGQPPKLLIYRASNLESGVPDRFSGSGSRTDFTLTISSLQAEDVAVYYCQQSNEGPPTFGQGTKLEIK
notes: Fab
B7: E93A (antibody, V domains shown)
VH: EVQLVQSGAEVKKPGASVKVSCKGSGYTFTDYAMHWVRQAPGQGLEWMGGISTYFGRTNYNQKFKGRVTMTVDTSISTAYMELSRLRSDDTAVYYCARGLSGNYVMDYWGQGTTVTVSS
VL: DIVMTQSPDSLAVSLGERATINCRASESVDSYGNSFMHWYQQKPGQPPKLLIYRASNLESGVPDRFSGSGSRTDFTLTISSLQAEDVAVYYCQQSNAAPPTFGQGTKLEIK
notes: also called 7A4.v15 E93A (CDR-L3) IgG
B8: 5903 (antibody, V domains shown)
VH: QLQLQESGPGLVKPSETLSLTCTVSGGSISSSSYYWGWIRQPPGKGLEWIGMIYYSGSTWYNPSLKSRVTISVDTSKNQFSLKLSSVTAADTAVYYCARVGHGISYFDLWGRGTLVTVSS
VL: EIVLTQSPATLSLSPGERATLSCRASQSVSSYLAWYQQKPGQAPRLLIYDASKRATGIPARFSGSGSGTDFTLTISSLEPEDFAVYYCQQVYTWPPRTFGGGTKVEIK
B9: 6298 (antibody, V domains shown)
VH: QLQLQESGPGLVKPSETLSLTCTVSGGSISWSSYYWSWIRQPPGKGLEWIGNIYYSGSTYYNPSLKSRVTISVDTSKNQFSLKLSSVTAADTAVYYCARLGHGYNYFDLWGRGTLVTVSS
VL: EIVLTQSPATLSLSPGERATLSCRASQSVSSYLAWFQQKPGQAPRLLIYDASNRATGIPARFSGSGSGTDFTLTISSLEPEDFAVYYCQQVYVWPPRTFGGGTKVEIK
notes: anti-BACE1 IgG
B10: 6291 (antibody, V domains shown)
VH: QLQLQESGPGLVKPSETLSLTCTVSGGSISSSSYYWGWIRQPPGKGLEWIGMIYYSGSTWYNPSLKSRVTISVDTSKNQFSLKLSSVTAADTAVYYCARVGHGVSYFDLWGRGTLVTVSS
VL: EIVLTQSPATLSLSPGERATLSCRASQSVSSYLAWYQQKPGQAPRLLIYGASKRATGIPARFSGSGSGTDFTLTISSLEPEDFAVYYCQQVYTWPPRTFGGGTKVEIK
notes: anti-BACE1 IgG
B11: 5983 (antibody, V domains shown)
VH: QLQLQESGPGLVKPSETLSLTCTVSGGSISSSSYYWGWIRQPPGKGLEWIGNIYYSGSTYYNPSLRSRVTISVDTSKNQFFLKLSSVTAADTAVYYCARLGHGYNYFDLWGRGTLVTVSS
VL: EIVLTQSPATLSLSPGERATLSCRASQSVSSYLAWFQQKPGQAPRLLIYDASNRATGIPARFSGSGSGTDFTLTISSLEPEDFAVYYCQQVYVWPPRTFGGGTKVEIK
notes: anti-BACE1 IgG
B12: 6294 (antibody, V domains shown)
VH: QLQLQESGPGLVKPSETLSLTCTVSGGSISSSSHYWGWIRQPPGKGLEWIGMIYYSGSTWYNPSLKSRVTISVDTSKNQFSLKLSSVTAADTAVYYCARVGHGVSYFDLWGRGTLVTVSS
VL: EIVLTQSPATLSLSPGERATLSCRASQSVSSYLAWYQQKPGQAPRLLIYDASKRATGIPARFSGSGSGTDFTLTISSLEPEDFAVYYCQQVYTWPPRTFGGGTKVEIK
notes: anti-BACE1 IgG

What was measured:
[1] = molecular target: T1, cyno TfR extracellular domain …; assay: SPR, TfR captured by anti-His, Fab injected;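 note: single cycle kinetics with a Fab dilution series, fitted by a one-to-one Langmuir model or a steady state model, KD taken as koff over kon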
[2] = molecular target: T2, human TfR extracellular domain with N-terminal His tag (human, UniProt P02786 89-760); assay: SPR, TfR captured by anti-His, Fab injected;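 note: single cycle kinetics with a Fab dilution series, fitted by a one-to-one Langmuir model or a steady state model, KD taken as koff over kon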
T2 construct: Biotinylated in some assays; also called huTfR; HuTfR
T2 sequence (P02786 89-760 G142S): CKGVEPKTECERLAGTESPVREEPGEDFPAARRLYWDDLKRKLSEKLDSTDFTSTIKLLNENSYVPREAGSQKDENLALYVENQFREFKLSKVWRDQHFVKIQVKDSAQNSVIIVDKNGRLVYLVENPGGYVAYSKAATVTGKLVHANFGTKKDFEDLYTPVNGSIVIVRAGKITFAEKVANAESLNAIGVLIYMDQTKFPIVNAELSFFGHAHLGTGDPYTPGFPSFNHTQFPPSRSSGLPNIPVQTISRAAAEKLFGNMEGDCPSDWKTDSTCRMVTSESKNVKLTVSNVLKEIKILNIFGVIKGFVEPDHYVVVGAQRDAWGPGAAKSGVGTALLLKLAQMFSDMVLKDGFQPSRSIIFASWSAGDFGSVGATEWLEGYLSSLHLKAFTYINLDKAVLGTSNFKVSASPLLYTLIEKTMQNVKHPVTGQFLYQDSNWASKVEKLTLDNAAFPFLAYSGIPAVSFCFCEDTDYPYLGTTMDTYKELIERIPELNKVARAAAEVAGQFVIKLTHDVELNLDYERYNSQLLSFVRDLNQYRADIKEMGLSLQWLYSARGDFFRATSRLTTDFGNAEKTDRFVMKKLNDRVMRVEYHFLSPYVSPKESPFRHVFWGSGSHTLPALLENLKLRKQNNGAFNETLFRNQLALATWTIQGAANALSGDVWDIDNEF

[3] = molecular target: T3, BACE1 in primary mouse cortical neurons (mouse, UniProt P56818 46-501); assay: cell-based or functional assay
T3 sequence (P56818 46-501): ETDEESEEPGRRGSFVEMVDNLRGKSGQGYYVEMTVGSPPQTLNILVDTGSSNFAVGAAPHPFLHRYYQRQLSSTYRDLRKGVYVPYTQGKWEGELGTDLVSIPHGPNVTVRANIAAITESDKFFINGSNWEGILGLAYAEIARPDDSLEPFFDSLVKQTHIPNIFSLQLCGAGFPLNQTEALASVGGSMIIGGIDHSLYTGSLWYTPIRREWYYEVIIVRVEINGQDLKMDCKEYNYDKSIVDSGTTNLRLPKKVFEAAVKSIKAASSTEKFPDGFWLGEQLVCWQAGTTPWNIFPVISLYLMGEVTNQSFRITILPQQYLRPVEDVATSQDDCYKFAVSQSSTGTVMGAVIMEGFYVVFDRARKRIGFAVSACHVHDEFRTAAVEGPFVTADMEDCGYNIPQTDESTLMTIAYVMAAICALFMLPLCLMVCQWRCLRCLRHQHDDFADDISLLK

[4] = molecular target: T4, human BACE1 ECD; assay: Octet, pH 5.0;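 note: antibodies captured on anti-human capture sensor tips, dissociation monitored in PBS with BSA buffer, kinetics fitted with a one-to-one binding model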
T4 construct: analyte of the Octet assay (200 nM) and enzyme of the first short substrate assay; also called human BACE1 extracellular domain
T4 sequence (single chain, as listed by the source limits assumed): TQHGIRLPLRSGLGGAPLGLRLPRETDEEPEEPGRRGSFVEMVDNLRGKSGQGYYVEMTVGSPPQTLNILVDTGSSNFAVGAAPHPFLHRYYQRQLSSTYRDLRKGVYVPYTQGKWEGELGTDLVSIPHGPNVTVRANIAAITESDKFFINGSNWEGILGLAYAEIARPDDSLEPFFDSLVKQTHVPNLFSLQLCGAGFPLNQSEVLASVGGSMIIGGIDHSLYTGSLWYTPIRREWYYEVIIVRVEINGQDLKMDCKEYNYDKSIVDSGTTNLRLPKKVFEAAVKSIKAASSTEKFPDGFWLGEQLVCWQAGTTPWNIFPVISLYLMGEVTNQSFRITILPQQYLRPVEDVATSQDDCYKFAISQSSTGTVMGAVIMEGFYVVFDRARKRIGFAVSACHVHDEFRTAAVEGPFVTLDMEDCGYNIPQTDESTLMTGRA

[5] = molecular target: T5, murine BACE1 ECD; assay: Octet, pH 5.0;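 note: antibodies captured on anti-human capture sensor tips, dissociation monitored in PBS with BSA buffer, kinetics fitted with a one-to-one binding model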
T5 construct: analyte of the Octet assay (200 nM) and enzyme of the first short substrate assay
T5 sequence (single chain, as listed by the source limits assumed): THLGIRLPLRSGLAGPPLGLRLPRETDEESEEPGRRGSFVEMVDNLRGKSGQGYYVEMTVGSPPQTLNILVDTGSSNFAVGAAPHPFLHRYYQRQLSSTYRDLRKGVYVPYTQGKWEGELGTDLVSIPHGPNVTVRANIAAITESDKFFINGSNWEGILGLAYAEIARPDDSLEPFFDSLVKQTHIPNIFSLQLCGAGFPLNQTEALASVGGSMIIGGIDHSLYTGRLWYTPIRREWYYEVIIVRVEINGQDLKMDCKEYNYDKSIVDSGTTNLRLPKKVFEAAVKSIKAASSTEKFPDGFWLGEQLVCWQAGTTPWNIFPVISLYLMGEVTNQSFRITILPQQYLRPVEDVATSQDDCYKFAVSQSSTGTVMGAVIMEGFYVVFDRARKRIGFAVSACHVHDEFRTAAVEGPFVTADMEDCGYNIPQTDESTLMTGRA

[6] = molecular target: T4, human BACE1 ECD; assay: Octet, pH 7.5
[7] = molecular target: T5, murine BACE1 ECD; assay: Octet, pH 7.5
[8] = molecular target: T1, cyno TfR extracellular domain …; assay: ELISA, IgG;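 note: ELISA of IgG-containing supernatants tested in 1:5 serial dilutions for 1 h, bound antibody read out with HRP anti-kappa antibody and TMB substrate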
[9] = molecular target: T2, human TfR extracellular domain with …; assay: ELISA, IgG;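 note: ELISA of IgG-containing supernatants tested in 1:5 serial dilutions for 1 h, bound antibody read out with HRP anti-kappa antibody and TMB substrate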
[10] = molecular target: BACE1 (HTRF long substrate and FRET short substrate assays of Example 9D); assay: cell-based or functional assay
[11] = molecular target: T3, BACE1 in primary mouse cortical neurons; assay: cell-based or functional assay; remark: listed apart in the source
[12] = molecular target: T4, human BACE1 ECD; assay: Octet, pH 5.0; remark: listed apart in the source;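 note: antibodies captured on anti-human capture sensor tips, dissociation monitored in PBS with BSA buffer, kinetics fitted with a one-to-one binding model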
[13] = molecular target: T4, human BACE1 ECD; assay: Octet, pH 7.5; remark: listed apart in the source
[14] = molecular target: T5, murine BACE1 ECD; assay: Octet, pH 7.5; remark: listed apart in the source

Binder	Kd [1] [nM]	koff [1] [s⁻¹]	kon [1] [M⁻¹ s⁻¹]	Kd [2] [nM]	koff [2] [s⁻¹]	kon [2] [M⁻¹ s⁻¹]	Kd [4] [nM]	Kd [5] [nM]	Kd [6] [nM]	Kd [7] [nM]	IC50, Abeta x-40 in mouse cortical neurons [11] [nM]	maximal % inhibition of Abeta x-40 [11] [%]	other results
B1	73.9	0.0373	505000	10.9	0.00699	638000	–	–	–	–	–	–	–
B2	41.6	0.0201	483000	7.26	0.00466	642000	–	–	–	–	–	–	–
B3	–	–	–	–	–	–	< 0.34	< 0.4	< 0.8	< 0.68	–	–	IC50, Abeta x-40 in mouse cortical neurons [3]: 9.1 nM; maximal % inhibition of Abeta x-40 [3]: 71%
B4	–	–	–	–	–	–	–	–	–	–	–	–	EC50 [8]: 0.0185 µg/mL; EC50 [9]: 0.0173 µg/mL
B5	4.23	0.00342	808000	0.401	0.000686	1.71e+06	–	–	–	–	–	–	–
B6	1.9	0.00331	1.74e+06	0.255	0.000844	3.32e+06	–	–	–	–	–	–	–
B7	–	–	–	–	–	–	–	–	–	–	–	–	EC50 [8]: 0.0176 µg/mL; EC50 [9]: 0.0122 µg/mL
B8	–	–	–	–	–	–	–	–	–	–	1.63	72	EC50, FRET short substrate [10]: 3.12 nM; EC50, HTRF long substrate [10]: 1.38 nM; IC50, Abeta x-40 in mouse cortical neurons (5903*, second run) [11]: 7.27 nM
B9	–	–	–	–	–	–	0.32	0.4	0.39	0.46	1.95	67	–
B10	–	–	–	–	–	–	< 0.26	< 0.3	< 0.28	< 0.26	1.41	68	–
B11	–	–	–	–	–	–	–	–	–	–	7.34	72	Kd [12]: 0.34 nM; Kd [13]: 0.35 nM; Kd [14]: < 0.24 nM
B12	–	–	–	–	–	–	< 0.27	< 0.34	< 0.3	< 0.3	3.53	59	–
